The values that follow are results of earlier work, collected in article PMC3471383.

For the series, the target named is FcγRI (Homo sapiens) (UniProt P12314).
UniProt P12314, sequence (P12314 16-292): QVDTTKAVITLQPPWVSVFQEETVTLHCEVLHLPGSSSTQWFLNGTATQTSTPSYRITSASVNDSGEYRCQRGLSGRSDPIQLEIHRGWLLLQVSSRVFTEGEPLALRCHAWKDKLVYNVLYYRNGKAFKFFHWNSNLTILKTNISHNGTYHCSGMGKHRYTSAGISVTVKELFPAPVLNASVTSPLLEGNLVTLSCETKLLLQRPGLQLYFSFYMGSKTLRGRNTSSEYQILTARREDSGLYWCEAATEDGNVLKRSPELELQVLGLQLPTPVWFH

With SAP (from UniProt P02743), the Kd was 500 nM.
